T1: human IL-2 receptor (human, UniProt P01589 22-272; P14784 27-551; P31785 23-369)
T1 sequence (looked up) 1: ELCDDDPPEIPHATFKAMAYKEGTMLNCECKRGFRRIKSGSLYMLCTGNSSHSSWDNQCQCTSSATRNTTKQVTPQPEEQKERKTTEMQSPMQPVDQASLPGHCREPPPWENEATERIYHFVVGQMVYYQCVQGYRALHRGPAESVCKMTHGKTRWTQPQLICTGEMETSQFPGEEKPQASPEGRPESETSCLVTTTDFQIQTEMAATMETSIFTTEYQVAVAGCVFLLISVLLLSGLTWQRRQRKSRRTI
T1 sequence (looked up) 2: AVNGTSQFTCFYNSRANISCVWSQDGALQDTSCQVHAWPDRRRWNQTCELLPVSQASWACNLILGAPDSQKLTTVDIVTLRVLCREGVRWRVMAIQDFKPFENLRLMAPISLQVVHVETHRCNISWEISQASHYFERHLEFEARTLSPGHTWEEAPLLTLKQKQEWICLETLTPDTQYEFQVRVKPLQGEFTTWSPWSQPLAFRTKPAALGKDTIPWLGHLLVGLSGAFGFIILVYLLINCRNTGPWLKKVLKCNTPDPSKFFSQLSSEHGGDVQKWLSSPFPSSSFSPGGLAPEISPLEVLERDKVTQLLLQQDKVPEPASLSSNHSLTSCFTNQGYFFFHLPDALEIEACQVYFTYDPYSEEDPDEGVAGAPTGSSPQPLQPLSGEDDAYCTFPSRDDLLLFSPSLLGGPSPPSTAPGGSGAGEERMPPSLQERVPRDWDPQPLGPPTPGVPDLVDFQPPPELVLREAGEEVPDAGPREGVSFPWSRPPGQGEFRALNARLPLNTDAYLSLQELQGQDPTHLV
T1 sequence (looked up) 3: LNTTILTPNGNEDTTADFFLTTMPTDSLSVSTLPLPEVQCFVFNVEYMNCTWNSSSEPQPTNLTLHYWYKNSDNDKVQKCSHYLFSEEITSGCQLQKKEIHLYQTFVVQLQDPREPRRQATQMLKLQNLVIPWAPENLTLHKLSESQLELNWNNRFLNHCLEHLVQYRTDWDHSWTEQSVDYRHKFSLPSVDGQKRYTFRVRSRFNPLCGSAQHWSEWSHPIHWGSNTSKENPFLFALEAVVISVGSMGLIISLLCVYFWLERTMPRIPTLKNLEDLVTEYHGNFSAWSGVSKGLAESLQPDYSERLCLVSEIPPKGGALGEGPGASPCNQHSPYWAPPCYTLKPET


How the values were obtained:
Test in all cases: cell-based or functional assay
human IL-2 receptor [1] = target: T1, human IL-2 receptor
[2] = target: T2, human PD-1 overexpressed on HEK-Blue reporter cells (human, UniProt Q15116 25-288)
human IL-2 receptor [3] = target: T1, human IL-2 receptor; remark: listed apart in the source
[4] = target: human IL-12 receptor complex (human, UniProt P42701 24-662; Q99665 24-862)
[5] = target: T2, human PD-1 overexpressed on HEK-Blue …; remark: listed apart in the source

T2 sequence (Q15116 25-288): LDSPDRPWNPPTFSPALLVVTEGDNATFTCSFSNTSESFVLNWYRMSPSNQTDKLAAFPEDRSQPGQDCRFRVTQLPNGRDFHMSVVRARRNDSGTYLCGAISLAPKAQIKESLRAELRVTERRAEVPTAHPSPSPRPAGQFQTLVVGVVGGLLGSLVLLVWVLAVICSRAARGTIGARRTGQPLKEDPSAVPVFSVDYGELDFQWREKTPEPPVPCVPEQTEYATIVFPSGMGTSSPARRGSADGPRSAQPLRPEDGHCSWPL
Sequence of human IL-12 receptor complex (Q99665 24-862, chain 2 of 2, other chains not shown): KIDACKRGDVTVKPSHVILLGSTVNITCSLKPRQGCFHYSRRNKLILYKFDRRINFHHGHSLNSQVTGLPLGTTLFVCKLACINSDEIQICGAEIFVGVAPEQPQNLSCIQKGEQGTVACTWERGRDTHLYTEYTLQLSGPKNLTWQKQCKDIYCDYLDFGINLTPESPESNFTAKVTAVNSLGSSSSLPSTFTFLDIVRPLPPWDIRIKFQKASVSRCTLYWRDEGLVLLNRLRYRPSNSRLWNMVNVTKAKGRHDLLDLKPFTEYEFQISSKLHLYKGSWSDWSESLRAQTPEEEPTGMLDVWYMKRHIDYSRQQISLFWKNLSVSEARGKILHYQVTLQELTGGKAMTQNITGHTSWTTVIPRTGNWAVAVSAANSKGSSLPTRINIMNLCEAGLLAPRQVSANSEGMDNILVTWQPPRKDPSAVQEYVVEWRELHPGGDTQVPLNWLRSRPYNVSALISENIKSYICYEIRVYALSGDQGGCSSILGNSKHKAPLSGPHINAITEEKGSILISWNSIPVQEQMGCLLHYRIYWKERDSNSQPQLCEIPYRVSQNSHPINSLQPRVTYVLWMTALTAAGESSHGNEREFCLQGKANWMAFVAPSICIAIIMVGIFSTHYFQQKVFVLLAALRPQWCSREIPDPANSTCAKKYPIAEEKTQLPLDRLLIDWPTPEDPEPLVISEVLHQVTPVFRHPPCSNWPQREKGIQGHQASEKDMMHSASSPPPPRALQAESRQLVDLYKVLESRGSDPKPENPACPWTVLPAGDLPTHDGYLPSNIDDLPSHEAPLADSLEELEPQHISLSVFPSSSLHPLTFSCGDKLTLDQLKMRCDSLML

| Binder | IL-2 signal transduction, % of rIL2, HEK-IL-2 cells (human IL-2 receptor [1]) | IL-2 signal transduction, % of rIL2, HEK-IL-2-PD-1 cells [2] | IL-2 signal transduction, % of rIL-2, HEK-IL-2 cells (human IL-2 receptor [3]) | IL-12 signal transduction, % of rIL-12, HEK-IL-12 cells [4] | IL-2 signal transduction, % of rIL-2, HEK-IL-2-PD-1 cells [5] | IL-12 signal transduction, % of rIL-12, HEK-IL-12-PD-1 cells [5] |
| --- | --- | --- | --- | --- | --- | --- |
| IL-2(L18R/Q22E/R38D/K43E/E61R/Q126T)/PD-L1(mut2)-Fc (Fc fusion) chain 1: FTVTVPKDLYVVEYGSNMTIECKFPVEKQLDLAALQVYWMMEDKNIIQFVHGEEDLKVQHSSYRQRARLLKDQLSLGNAALQITDVKLQDAGVYTCLIAYKGADYKRITVKVNAPYNKINQRILVVDPVTSEHELTCQAEGYPKAEVIWTSSDHQVLSGKTTTTNSKREEKLFNVTSTLRINTTTNEIFYCTFRRLDPEENHTAELVIPELPLAHPPNERGGGSGAPTSSSTKKTQLQLEHLRLDLEMILNGINNYKNPKLTDMLTFEFYMPKKATELKHLQCLERELKPLEEVLNLAQSKNFHLRPRDLISNINVIVLELKGSETTFMCEYADETATIVEFLNRWITFCTSIISTLTGGGGSGGGDKTHTCPPCPAPEKKGGPSVFLFPPKPKDTLMISRTPEVTCVVVDVSHEDPEVKFNWYVDGVEVHNAKTKPREEQYNSTYRVVSVLTVLHQDWLNGKEYKCKVSNKALPAPIEKTISKAKGQPREPQVYVLPPSREEMTKNQVSLLCLVKGFYPSDIAVEWESNGQPENRYMTWPPVLDSDGSFFLYSKLTVDKSRWQQGNVFSCSVMHEALHNHYTQKSLSLSPGK chain 2: FTVTVPKDLYVVEYGSNMTIECKFPVEKQLDLAALQVYWMMEDKNIIQFVHGEEDLKVQHSSYRQRARLLKDQLSLGNAALQITDVKLQDAGVYTCLIAYKGADYKRITVKVNAPYNKINQRILVVDPVTSEHELTCQAEGYPKAEVIWTSSDHQVLSGKTTTTNSKREEKLFNVTSTLRINTTTNEIFYCTFRRLDPEENHTAELVIPELPLAHPPNERGGGGSGGGDKTHTCPPCPAPEDEGGPSVFLFPPKPKDTLMISRTPEVTCVVVDVSHEDPEVKFNWYVDGVEVHNAKTKPREEQYNSTYRVVSVLTVLHQDWLNGKEYKCKVSNKALPAPIEKTISKAKGQPREPQVYVYPPSREEMTKNQVSLTCLVKGFYPSDIAVEWESNGQPENNYKTTPPVLDEDGSFALVSKLTVDKSRWQQGNVFSCSVMHEALHNHYTQKSLSLSPGK | < 0.1% | 5% | – | – | – | – |
| IL-2(L18R/Q22E/R38D/K43E/E61R/Q126T/S130R)/PD-L1(mut2)-Fc (Fc fusion) chain 1: FTVTVPKDLYVVEYGSNMTIECKFPVEKQLDLAALQVYWMMEDKNIIQFVHGEEDLKVQHSSYRQRARLLKDQLSLGNAALQITDVKLQDAGVYTCLIAYKGADYKRITVKVNAPYNKINQRILVVDPVTSEHELTCQAEGYPKAEVIWTSSDHQVLSGKTTTTNSKREEKLFNVTSTLRINTTTNEIFYCTFRRLDPEENHTAELVIPELPLAHPPNERGGGSGAPTSSSTKKTQLQLEHLRLDLEMILNGINNYKNPKLTDMLTFEFYMPKKATELKHLQCLERELKPLEEVLNLAQSKNFHLRPRDLISNINVIVLELKGSETTFMCEYADETATIVEFLNRWITFCTSIIRTLTGGGGSGGGDKTHTCPPCPAPEKKGGPSVFLFPPKPKDTLMISRTPEVTCVVVDVSHEDPEVKFNWYVDGVEVHNAKTKPREEQYNSTYRVVSVLTVLHQDWLNGKEYKCKVSNKALPAPIEKTISKAKGQPREPQVYVLPPSREEMTKNQVSLLCLVKGFYPSDIAVEWESNGQPENRYMTWPPVLDSDGSFFLYSKLTVDKSRWQQGNVFSCSVMHEALHNHYTQKSLSLSPGK chain 2: FTVTVPKDLYVVEYGSNMTIECKFPVEKQLDLAALQVYWMMEDKNIIQFVHGEEDLKVQHSSYRQRARLLKDQLSLGNAALQITDVKLQDAGVYTCLIAYKGADYKRITVKVNAPYNKINQRILVVDPVTSEHELTCQAEGYPKAEVIWTSSDHQVLSGKTTTTNSKREEKLFNVTSTLRINTTTNEIFYCTFRRLDPEENHTAELVIPELPLAHPPNERGGGGSGGGDKTHTCPPCPAPEDEGGPSVFLFPPKPKDTLMISRTPEVTCVVVDVSHEDPEVKFNWYVDGVEVHNAKTKPREEQYNSTYRVVSVLTVLHQDWLNGKEYKCKVSNKALPAPIEKTISKAKGQPREPQVYVYPPSREEMTKNQVSLTCLVKGFYPSDIAVEWESNGQPENNYKTTPPVLDEDGSFALVSKLTVDKSRWQQGNVFSCSVMHEALHNHYTQKSLSLSPGK | < 0.1% | < 0.1% | – | – | – | – |
| IL-2(L18R/Q22E/R38D/K43E/E61R)/IL-12(E59A/F60A)/PD-L1(mut2)-Fc (Fc fusion) chain 1: FTVTVPKDLYVVEYGSNMTIECKFPVEKQLDLAALQVYWMMEDKNIIQFVHGEEDLKVQHSSYRQRARLLKDQLSLGNAALQITDVKLQDAGVYTCLIAYKGADYKRITVKVNAPYNKINQRILVVDPVTSEHELTCQAEGYPKAEVIWTSSDHQVLSGKTTTTNSKREEKLFNVTSTLRINTTTNEIFYCTFRRLDPEENHTAELVIPELPLAHPPNERGGGGSGGGIWELKKDVYVVELDWYPDAPGEMVVLTCDTPEEDGITWTLDQSSEVLGSGKTLTIQVKAAGDAGQYTCHKGGEVLSHSLLLLHKKEDGIWSTDILKDQKEPKNKTFLRCEAKNYSGRFTCWWLTTISTDLTFSVKSSRGSSDPQGVTCGAATLSAERVRGDNKEYEYSVECQEDSACPAAEESLPIEVMVDAVHKLKYENYTSSFFIRDIIKPDPPKNLQLKPLKNSRQVEVSWEYPDTWSTPHSYFSLTFCVQVQGKSKREKKDRVFTDKTSATVICRKNASISVRAQDRYYSSSWSEWASVPCSGGGGSGGGSGGGGSRNLPVATPDPGMFPCLHHSQNLLRAVSNMLQKARQTLEFYPCTSEEIDHEDITKDKTSTVEACLPLELTKNESCLNSRETSFITNGSCLASRKTSFMMALCLSSIYEDLKMYQVEFKTMNAKLLMDPKRQIFLDQNMLAVIDELMQALNFNSETVPQKSSLEEPDFYKTKIKLCILLHAFRIRAVTIDRVMSYLNASGGGGSGGGDKTHTCPPCPAPEDEGGPSVFLFPPKPKDTLMISRTPEVTCVVVDVSHEDPEVKFNWYVDGVEVHNAKTKPREEQYNSTYRVVSVLTVLHQDWLNGKEYKCKVSNKALPAPIEKTISKAKGQPREPQVYVYPPSREEMTKNQVSLTCLVKGFYPSDIAVEWESNGQPENNYKTTPPVLDEDGSFALVSKLTVDKSRWQQGNVFSCSVMHEALHNHYTQKSLSLSPGK chain 2: FTVTVPKDLYVVEYGSNMTIECKFPVEKQLDLAALQVYWMMEDKNIIQFVHGEEDLKVQHSSYRQRARLLKDQLSLGNAALQITDVKLQDAGVYTCLIAYKGADYKRITVKVNAPYNKINQRILVVDPVTSEHELTCQAEGYPKAEVIWTSSDHQVLSGKTTTTNSKREEKLFNVTSTLRINTTTNEIFYCTFRRLDPEENHTAELVIPELPLAHPPNERGGGSGAPTSSSTKKTQLQLEHLRLDLEMILNGINNYKNPKLTDMLTFEFYMPKKATELKHLQCLERELKPLEEVLNLAQSKNFHLRPRDLISNINVIVLELKGSETTFMCEYADETATIVEFLNRWITFCQSIISTLTGGGGSGGGDKTHTCPPCPAPEKKGGPSVFLFPPKPKDTLMISRTPEVTCVVVDVSHEDPEVKFNWYVDGVEVHNAKTKPREEQYNSTYRVVSVLTVLHQDWLNGKEYKCKVSNKALPAPIEKTISKAKGQPREPQVYVLPPSREEMTKNQVSLLCLVKGFYPSDIAVEWESNGQPENRYMTWPPVLDSDGSFFLYSKLTVDKSRWQQGNVFSCSVMHEALHNHYTQKSLSLSPGK | – | – | 4% | < 0.2% | 35% | 19% |

— patent publication US20230167164A1 (IMMUNOWAKE, published 2023)
